Data: US20260242478A1 (published 2026)

B1: Phage-3037 (peptide)
peptide: PAVRCEPSWMCQGF
notes: Peptide-180 library clone, tested as clonal phage supernatant (pIII display)
B2: Phage-3054 (peptide)
peptide: DWIRCLPAWMCTGF
notes: Peptide-180 library clone, tested as clonal phage supernatant (peptide fused to pIII of the bacteriophage)
B3: Phage-3036 (peptide)
peptide: IIPACVPPWMCSGF
notes: as for B1
B4: Phage-3053 (peptide)
peptide: VAPSCVPLWMCVGM
notes: as for B2
B5: Phage-3048 (peptide)
peptide: PGHVCRPAWMCEGF
notes: as for B2
B6: Phage-3045 (peptide)
peptide: VIGWCVPQWMCSGF
notes: as for B1
B7: Phage-3049 (peptide)
peptide: VNVKCTPPWMCFGF
notes: as for B2
B8: Phage-3046 (peptide)
peptide: VDKVCRPMWMCAGF
notes: as for B2
B9: Phage-3033 (peptide)
peptide: ELLMCRPAWMCDGF
notes: as for B1
B10: Phage-3038 (peptide)
peptide: VEPQCRPAWMCYGF
notes: as for B1
B11: Phage-3050 (peptide)
peptide: ELYKCVPSWMCYGF
notes: as for B2
B12: Phage-3044 (peptide)
peptide: SLAVCKPSWMCAGF
notes: as for B1
B13: Phage-3052 (peptide)
peptide: DMRLCRPVWMCEGF
notes: as for B2
B14: Phage-3058 (peptide)
peptide: DWVRCVPEWMCLGF
notes: as for B2
B15: Phage-3042 (peptide)
peptide: YTMVCRPAWMCQGF
notes: as for B1
B16: Phage-3039 (peptide)
peptide: VHNWCVPSWMCLGL
notes: as for B1
B17: Phage-3051 (peptide)
peptide: PGQVCIPEWMCTGF
notes: as for B2
B18: Phage-3047 (peptide)
peptide: VGNMCVPEWMCVGF
notes: as for B2
B19: Phage-3057 (peptide)
peptide: TGPVCIPKWMCFGF
notes: as for B2
B20: Phage-3043 (peptide)
peptide: PTVYCKPEWMCTGF
notes: as for B1
B21: Phage-3056 (peptide)
peptide: IEMMCRPSWMCDWL
notes: as for B2
B22: Phage-3034 (peptide)
peptide: YAHICKPSWMCDGF
notes: as for B1
B23: Phage-3040 (peptide)
peptide: DYPLCRPEWMCMGF
notes: as for B1
B24: Phage-3055 (peptide)
peptide: PVELCRPAWMCWGF
notes: as for B2
B25: Phage-3041 (peptide)
peptide: EHLRCVPDWMCVGF
notes: as for B1
B26: Phage-3059 (peptide)
peptide: EFAMCRPVWMCWGF
notes: as for B2
B27: Phage-3035 (peptide)
peptide: LMPLCVPVWMCSGF
notes: as for B1

Tests used:
PSMA Fab [1] = molecular target: T1, PSMA Fab; assay: clonal phage ELISA on biotinylated PSMA Fab captured on neutravidin, anti-M13 HRP detection;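 also: crude clonal phage supernatants added to wells pretreated with PSMA antigen in blocking buffer or with blocking buffer only, then briefly incubated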
T1 construct: Biotinylated and captured on neutravidin plates in the phage ELISA; also called Anti-PSMA Fab; 006 PSMA Fab
Description: (§1) Clonal phage were harvested as crude supernatants and screened via standard ELISAs. […] Prior to the addition of clonal phage. wells were incubated with blocking buffer and PSMA antigen or blocking buffer alone. Without washing or aspirating, clonal phage supernatants were then added to the wells and incubated for a short time. Wells were then washed followed by detection of bound phage using a horse radish conjugated anti-M13 antibody.

PSMA Fab [2] = molecular target: T1, PSMA Fab; assay: clonal phage ELISA on captured PSMA Fab pre-incubated with PSMA antigen (competitor)
Description: as §1

006 PSMA Fab [3] = molecular target: T2, 006 PSMA Fab; assay: clonal phage ELISA on biotinylated PSMA Fab captured on neutravidin, anti-M13 HRP detection, no competitor
T2 construct: In the phage ELISA the Fab was biotinylated and captured on neutravidin coated plates; also called Anti-PSMA Fab
Description: as §1

006 PSMA Fab [4] = molecular target: T2, 006 PSMA Fab; assay: clonal phage ELISA on biotinylated PSMA Fab captured on neutravidin, wells pre-incubated with PSMA antigen as competitor, anti-M13 HRP detection
Description: as §1

PSMA Fab (006 PSMA Fab) [5] = molecular target: T3, PSMA Fab (006 PSMA Fab); assay: phage ELISA; biotinylated PSMA Fab on neutravidin plate pre-incubated with PSMA antigen as competitor, clonal phage supernatant, anti-M13 HRP detection
T3 construct: also called Anti-PSMA Fab; anti-PSMA Fab
Description: as §1

PSMA Fab (006 PSMA Fab) [6] = molecular target: T3, PSMA Fab (006 PSMA Fab); assay: phage ELISA; biotinylated PSMA Fab on neutravidin plate, clonal phage supernatant, anti-M13 HRP detection; blocking buffer alone
Description: as §1

PSMA Fab (006 PSMA Fab) [7] = molecular target: T4, PSMA Fab (006 PSMA Fab); assay: clonal phage ELISA; biotinylated PSMA Fab on neutravidin plate, wells pre-incubated with PSMA antigen (competitor); anti-M13 HRP detection
T4 construct: also called Anti-PSMA Fab; anti-PSMA Fab
Description: as §1

PSMA Fab (006 PSMA Fab) [8] = molecular target: T4, PSMA Fab (006 PSMA Fab); assay: clonal phage ELISA; biotinylated PSMA Fab on neutravidin plate, blocking buffer alone; anti-M13 HRP detection;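 also: crude clonal phage supernatants added without washing to wells pretreated with blocking buffer with or without PSMA antigen, short incubation, then washed before detecting bound phage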
Description: as §1

Binder | Phage binding ELISA signal, Anti-PSMA Fab (PSMA Fab [1]) | Phage binding ELISA signal, Anti-PSMA Fab with PSMA antigen (PSMA Fab [2]) | Phage binding ELISA signal, Anti-PSMA Fab in the presence of PSMA antigen (PSMA Fab (006 PSMA Fab) [5]) | Phage binding ELISA signal, Anti-PSMA Fab (PSMA Fab (006 PSMA Fab) [6]) | further results
B1 | 2.18 | 0.161 |  |  | 
EGVVCIPEWMCKGF [Phage-3032] | 2.18 | 0.0637 |  |  | 
VQVLCVPSWMCHGF [Phage-3062] |  |  |  |  | Phage binding ELISA signal, Anti-PSMA Fab (006 PSMA Fab [3]): 2.15; Phage binding ELISA signal, Anti-PSMA Fab with PSMA antigen (006 PSMA Fab [4]): 0.0688
B2 |  |  | 0.0848 | 2.16 | 
VVPMCSPSWMCQGF [Phage-3064] |  |  |  |  | Phage binding ELISA signal, Anti-PSMA Fab (006 PSMA Fab [3]): 2.14; Phage binding ELISA signal, Anti-PSMA Fab with PSMA antigen (006 PSMA Fab [4]): 0.0725
B3 | 2.18 | 0.212 |  |  | 
B4 |  |  | 0.68 | 2.16 | 
B5 |  |  | 0.106 | 2.17 | 
DMRRCEPIWMCVGF [Phage-3028] |  |  |  |  | Phage binding ELISA signal, Anti-PSMA Fab in presence of PSMA antigen (PSMA Fab (006 PSMA Fab) [7]): 0.0954; Phage binding ELISA signal, Anti-PSMA Fab (PSMA Fab (006 PSMA Fab) [8]): 2.19
VDVLCVPSWMCSWL [Phage-3026] |  |  |  |  | Phage binding ELISA signal, Anti-PSMA Fab in presence of PSMA antigen (PSMA Fab (006 PSMA Fab) [7]): 0.0683; Phage binding ELISA signal, Anti-PSMA Fab (PSMA Fab (006 PSMA Fab) [8]): 2.19
VERSCVPSWMCYGF [Phage-3066] |  |  |  |  | Phage binding ELISA signal, Anti-PSMA Fab (006 PSMA Fab [3]): 2.14; Phage binding ELISA signal, Anti-PSMA Fab with PSMA antigen (006 PSMA Fab [4]): 0.0806
B6 | 2.17 | 0.113 |  |  | 
B7 |  |  | 0.0865 | 2.16 | 
ITKACIPEWMCHAF [Phage-3061] |  |  |  |  | Phage binding ELISA signal, Anti-PSMA Fab (006 PSMA Fab [3]): 2.15; Phage binding ELISA signal, Anti-PSMA Fab with PSMA antigen (006 PSMA Fab [4]): 0.0651
B8 |  |  | 0.126 | 2.17 | 
B9 | 2.18 | 0.087 |  |  | 
EEKMCVPLWMCSGF [Phage-3060] |  |  |  |  | Phage binding ELISA signal, Anti-PSMA Fab (006 PSMA Fab [3]): 2.15; Phage binding ELISA signal, Anti-PSMA Fab with PSMA antigen (006 PSMA Fab [4]): 0.0787
B10 | 2.18 | 0.0668 |  |  | 
HHQLCKPLWMCEGF [Phage-3030] |  |  |  |  | Phage binding ELISA signal, Anti-PSMA Fab in presence of PSMA antigen (PSMA Fab (006 PSMA Fab) [7]): 0.13; Phage binding ELISA signal, Anti-PSMA Fab (PSMA Fab (006 PSMA Fab) [8]): 2.19
B11 |  |  | 0.0696 | 2.16 | 
B12 | 2.17 | 0.0813 |  |  | 
B13 |  |  | 0.13 | 2.16 | 
B14 |  |  | 0.106 | 2.15 | 

Binder | Phage binding ELISA signal, Anti-PSMA Fab (PSMA Fab [1]) | Phage binding ELISA signal, Anti-PSMA Fab with PSMA antigen (PSMA Fab [2]) | Phage binding ELISA signal, Anti-PSMA Fab in the presence of PSMA antigen (PSMA Fab (006 PSMA Fab) [5]) | Phage binding ELISA signal, Anti-PSMA Fab (PSMA Fab (006 PSMA Fab) [6]) | further results
B15 | 2.17 | 0.0964 |  |  | 
B16 | 2.18 | 0.099 |  |  | 
DSIMCRPAWMCAGF [Phage-3029] |  |  |  |  | Phage binding ELISA signal, Anti-PSMA Fab in presence of PSMA antigen (PSMA Fab (006 PSMA Fab) [7]): 0.0945; Phage binding ELISA signal, Anti-PSMA Fab (PSMA Fab (006 PSMA Fab) [8]): 2.19
B17 |  |  | 0.0874 | 2.16 | 
B18 |  |  | 0.0878 | 2.17 | 
VEIQCRPSWMCMGF [Phage-3063] |  |  |  |  | Phage binding ELISA signal, Anti-PSMA Fab (006 PSMA Fab [3]): 2.14; Phage binding ELISA signal, Anti-PSMA Fab with PSMA antigen (006 PSMA Fab [4]): 0.0951
PLVVCKPAWMCIGF [Phage-3025] |  |  |  |  | Phage binding ELISA signal, Anti-PSMA Fab in presence of PSMA antigen (PSMA Fab (006 PSMA Fab) [7]): 0.0979; Phage binding ELISA signal, Anti-PSMA Fab (PSMA Fab (006 PSMA Fab) [8]): 2.19
LSHMCRPAWMCEGF [Phage-3068] |  |  |  |  | Phage binding ELISA signal, Anti-PSMA Fab (006 PSMA Fab [3]): 2.13; Phage binding ELISA signal, Anti-PSMA Fab with PSMA antigen (006 PSMA Fab [4]): 0.0938
B19 |  |  | 0.075 | 2.15 | 
B20 | 2.17 | 0.0869 |  |  | 
IERLCMPMWMCTGL [Phage-3024] |  |  |  |  | Phage binding ELISA signal, Anti-PSMA Fab in presence of PSMA antigen (PSMA Fab (006 PSMA Fab) [7]): 0.0679; Phage binding ELISA signal, Anti-PSMA Fab (PSMA Fab (006 PSMA Fab) [8]): 2.19
GMVRCVPQWMCVGF [Phage-3065] |  |  |  |  | Phage binding ELISA signal, Anti-PSMA Fab (006 PSMA Fab [3]): 2.14; Phage binding ELISA signal, Anti-PSMA Fab with PSMA antigen (006 PSMA Fab [4]): 0.111
B21 |  |  | 0.0844 | 2.16 | 
B22 | 2.18 | 0.108 |  |  | 
LLAECVAAWMCSGF [Phage-3067] |  |  |  |  | Phage binding ELISA signal, Anti-PSMA Fab (006 PSMA Fab [3]): 2.13; Phage binding ELISA signal, Anti-PSMA Fab with PSMA antigen (006 PSMA Fab [4]): 0.0712
B23 | 2.18 | 0.0813 |  |  | 
B24 |  |  | 0.103 | 2.16 | 
B25 | 2.17 | 0.0886 |  |  | 
B26 |  |  | 0.142 | 2.15 | 
B27 | 2.18 | 0.106 |  |  | 
VLPVCKPLWMCKGL [Phage-3027] |  |  |  |  | Phage binding ELISA signal, Anti-PSMA Fab in presence of PSMA antigen (PSMA Fab (006 PSMA Fab) [7]): 0.234; Phage binding ELISA signal, Anti-PSMA Fab (PSMA Fab (006 PSMA Fab) [8]): 2.19
WEILCKPEWMCSGF [Phage-3031] |  |  |  |  | Phage binding ELISA signal, Anti-PSMA Fab in presence of PSMA antigen (PSMA Fab (006 PSMA Fab) [7]): 0.105; Phage binding ELISA signal, Anti-PSMA Fab (PSMA Fab (006 PSMA Fab) [8]): 2.19
